Reference: US20220363718A1 (Bicycle, published 2022)
*1 amine or outer side, *2 acyl side, *3 side chain or, on linkers, in order; H or OH if unused. Bridges are numbered along the chain shown (N, C = ends). Where no end group is shown, it is not given here. [ ]: non-standard residue; d: D form. TATA = O=C(CC[*:1])N1CN(C(=O)CC[*:2])CN(C(=O)CC[*:3])C1; Trp(1-Me) = Cn1cc(C[C@H](N)C(=O)O)c2ccccc21; Arg(Me2a) = CN(C)C(=N)NCCC[C@H](N)C(=O)O; Lys(Me3) = C[N+](C)(C)CCCC[C@H](N)C(=O)O; Phe(4-F) = N[C@@H](Cc1ccc(F)cc1)C(=O)O; 1Nal = N[C@@H](Cc1cccc2ccccc12)C(=O)O; Ala(cPent) = N[C@@H](CC1CCCC1)C(=O)O; Ala(cPr) = N[C@@H](CC1CC1)C(=O)O; tBuAla = CC(C)(C)C[C@H](N)C(=O)O; NMeA = CN[C@@H](C)C(=O)O

B1: Example 50 (peptide)
peptide: CQWLEDCWRGXC
modifications: not fully specified; Ac-CQWLEDCWRG[Nal2]C; 3 Cys cyclised with TATA
B2: Example 29 (peptide)
peptide: Ac-C[NMeA][1Nal][tBuAla]QDC[Trp(1-Me)][Arg(Me2a)]G[Phe(4-F)]C[dA]
modifications: linker 1-7-12 via TATA; not fully specified (C-terminus)
B3: Example 27 (peptide)
peptide: CQXLEDCWRGXC
modifications: not fully specified; Ac-CQ[Nal1]LEDCWRG[4-FPhe]C; 3 Cys cyclised with TATA
B4: Example 8 (peptide)
peptide: CQWLEDCWRGXC
modifications: not fully specified; Ac-CQWLEDCWRG[4F3ClPhe]C; 3 Cys cyclised with TATA
B5: Example 53 (peptide)
peptide: Ac-ACQWLEDCWRGFCPLD
modifications: linker 2-8-13 via TATA
B6: Example 59 (peptide)
peptide: ACQWLEDCWRGFCSSSDQS
modifications: linker 2-8-13 via TATA
B7: Example 44 (peptide)
peptide: Ac-CQW[tBuAla]EDCWRGFC
modifications: linker 1-7-12 via TATA; not fully specified (C-terminus); printed as Ac-CQW[tBuA]EDCWRGFC
B8: Example 22 (peptide)
peptide: CQWLEDCWRGXC
modifications: not fully specified; Ac-CQWLEDCWRG[3,4diFPhe]C; 3 Cys cyclised with TATA
B9: Example 18 (peptide)
peptide: Ac-C[NMeA][Trp(1-Me)][tBuAla]QDC[Trp(1-Me)][Arg(Me2a)]G[Phe(4-F)]C
modifications: linker 1-7-12 via TATA
B10: Example 42 (peptide)
peptide: ACQWLEDCWRGFCADGDML
modifications: linker 2-8-13 via TATA
B11: Example 17 (peptide)
peptide: CQWLEDCWRGXC
modifications: not fully specified; Ac-CQWLEDCWRG[4-FPhe]C; 3 Cys cyclised with TATA
B12: Example 56 (peptide)
peptide: TMEYRDCQWLEDCWRGFCA
modifications: linker 7-13-18 via TATA
B13: Example 47 (peptide)
peptide: CQWLEDCWRGXC
modifications: not fully specified; Ac-CQWLEDCWRG[Nal1]C; 3 Cys cyclised with TATA
B14: Example 32 (peptide)
peptide: CQWLEDCWRGXC
modifications: not fully specified; Ac-CQWLEDCWRG[3-ClPhe]C; 3 Cys cyclised with TATA
B15: Example 25 (peptide)
peptide: Ac-C[NMeA][1Nal][tBuAla]QDC[Trp(1-Me)][Arg(Me2a)]G[Phe(4-F)]C
modifications: linker 1-7-12 via TATA; not fully specified (C-terminus)
B16: Example 63 (peptide)
peptide: ACTWLEDCWRGFCADS
modifications: linker 2-8-13 via TATA
B17: Example 4 (peptide)
peptide: CQWXEDCWRGXC
modifications: not fully specified; Ac-CQW[tBuA]EDCWRG[4-FPhe]C; 3 Cys cyclised with TATA
B18: Example 45 (peptide)
peptide: GTDSAECQWLEDCWRGFCA
modifications: linker 7-13-18 via TATA
B19: Example 54 (peptide)
peptide: Ac-CQWLEDCWRGFCAPDERD
modifications: linker 1-7-12 via TATA
B20: Example 60 (peptide)
peptide: CQWLEDCXRGXC
modifications: N-term acetyl; CQWLEDC[4-ClNal]RG[4-FPhe]C as printed; 3 Cys on TATA
B21: Example 80 (peptide)
peptide: Ac-CQW[Ala(cPr)]EDCWRGFC
modifications: linker 1-7-12 via TATA; not fully specified (C-terminus); printed as CQW[CproA]EDCWRGFC
B22: Example 63 (peptide)
peptide: ACTWLEDCWRGFCADS
modifications: linker 2-8-13 via TATA
B23: Example 61 (peptide)
peptide: SDEQRTCQWLEDCWRGFCA
modifications: linker 7-13-18 via TATA
B24: Example 41 (peptide)
peptide: CQWLEDCWRGXC
modifications: not fully specified; N-term acetyl; CQWLEDCWRG[3-F,4-ClPhe]C as printed; 3 Cys on TATA
B25: Example 65 (peptide)
peptide: Ac-CQW[Ala(cPent)]EDCWRGFC
modifications: linker 1-7-12 via TATA
B26: Example 37 (peptide)
peptide: CQWLEDCWRGXC
modifications: not fully specified; N-term acetyl; CQWLEDCWRG[3,4,5triFPhe]C as printed; 3 Cys on TATA
B27: Example 76 (peptide)
peptide: ACTWLDDCWRGFCA
modifications: linker 2-8-13 via TATA
B28: Example 55 (peptide)
peptide: ACQWLEDCWRGFCDDAHAP
modifications: linker 2-8-13 via TATA
B29: Example 77 (peptide)
peptide: CQWLEDCWRGXC
modifications: N-term acetyl; CQWLEDCWRG[4-CF3Phe]C as printed; 3 Cys on TATA
B30: Example 53 (peptide)
peptide: Ac-ACQWLEDCWRGFCPLD
modifications: linker 2-8-13 via TATA; not fully specified (C-terminus)
B31: Example 26 (peptide)
peptide: CQWLEDCWRGXC
modifications: not fully specified; N-term acetyl; CQWLEDCWRG[4-BrPhe]C as printed; 3 Cys on TATA
B32: Example 75 (peptide)
peptide: ACHWLEDCWRGFCHLE
modifications: linker 2-8-13 via TATA; not fully specified (C-terminus)
B33: Example 74 (peptide)
peptide: CQWLEDCWRGXC
modifications: not fully specified; N-term acetyl; CQWLEDCWRG[3-MePhe]C as printed; 3 Cys on TATA
B34: Example 27 (peptide)
peptide: CQXLEDCWRGXC
modifications: not fully specified; N-term acetyl; CQ[Nal1]LEDCWRG[4-FPhe]C as printed; 3 Cys on TATA
B35: Example 73 (peptide)
peptide: SPPCVWLDDCWRGFCA
modifications: linker 4-10-15 via TATA
B36: Example 71 (peptide)
peptide: ETNNLECQWLEDCWRGFCA
modifications: linker 7-13-18 via TATA
B37: Example 38 (peptide)
peptide: CQXLEDCWXGXC
modifications: not fully specified; N-term acetyl; CQ[Nal1]LEDCW[ADMA]G[4-FPhe]C as printed; 3 Cys on TATA
B38: Example 62 (peptide)
peptide: CAXLEDCWXGXC
modifications: N-term acetyl; CA[Nal1]LEDCW[Harg]G[4-FPhe]C as printed; 3 Cys on TATA
B39: Example 22 (peptide)
peptide: CQWLEDCWRGXC
modifications: not fully specified; N-term acetyl; CQWLEDCWRG[3,4diFPhe]C as printed; 3 Cys on TATA
B40: Example 81 (peptide)
peptide: Ac-CQWLEDCW[Lys(Me3)]GFC
modifications: linker 1-7-12 via TATA; not fully specified (C-terminus)

What follows are binders tested against TSLP (as used in the human PBMC assay) (UniProt Q969D9 29-159) (assay: cell-based or functional assay).

CCL17 % Inhibition @ 10 µM, 666 pM TSLP [%]	CCL17 % Inhibition @ 10 µM, 50 pM TSLP [%]	CCL17 % Inhibition @ 10 µM, 400 pM TSLP [%]	Binder
33			B1
	61	62	B2
33			B3
	71		B4
-2			B5
2			B6
52			B7
	41		B8
	89		B9
47	< 20		B10
	1		B11
40			B12
-7			B13
14			B14
	71		B15
24			B16
	47		B17
0			B18

What follows are binders tested against T1, Biotinylated human TSLP (human, biotinylated) (assay: SPR, biotinylated hTSLP on streptavidin chip).
T1 construct: also called hTSLP; thymic stromal lymphopoietin
T1 sequence (chain, as listed by the source limits assumed): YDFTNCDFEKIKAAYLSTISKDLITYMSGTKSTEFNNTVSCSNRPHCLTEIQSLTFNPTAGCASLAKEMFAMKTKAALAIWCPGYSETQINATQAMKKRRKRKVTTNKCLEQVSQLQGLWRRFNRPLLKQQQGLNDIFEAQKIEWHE

Kd [nM]	Binder
46	B19
62	B20
100	B21
65	B22
62	B23
24	B24
70	B25
19	B26
93	B27
47	B28
93	B29
43	B30
11	B31
92	B32
91	B33
12	B34
85	B35
82	B36
20	B37
63	B38
9.7	B39
100	B40
